Results: patent US20230287125A1 (LEPU BIOPHARMA, published 2023)

How the values were obtained:
[1] = molecular target: rat PD-L1 protein (rat, UniProt D4AE25 19-239); assay: ELISA, coated rat PD-L1
Procedure: (§1) ELISA testing was carried out to evaluate the binding of chimeric antibodies to human, mouse, rat, and cynomolgus PD-L1, respectively.
(§2) Briefly, microtiter plates were coated with human, mouse, rat and cynomolgus PD-L1 proteins at 0.5 μg/ml in PBS, 100 μl/well at 4° C. overnight, then blocked with 150 μl/well of 1% BSA. Three-fold dilutions of chimeric antibodies starting from 10 μg/ml were added to each well and incubated for 1 hour at 37° C. The plates were washed with PBS/Tween and then incubate with mouse-anti-human IgG Fab antibody conjugated with Horse Radish Peroxidase (HRP) for 30 mins at 37° C. After washing, the plates were developed with TMB substrate and analyzed by spectrophotometer at OD 450 nm.

[2] = molecular target: mouse PD-L1 protein (mouse, UniProt Q9EP73 19-239); assay: ELISA, coated mouse PD-L1
mouse PD-L1 protein, sequence (Q9EP73 19-239 limits assumed): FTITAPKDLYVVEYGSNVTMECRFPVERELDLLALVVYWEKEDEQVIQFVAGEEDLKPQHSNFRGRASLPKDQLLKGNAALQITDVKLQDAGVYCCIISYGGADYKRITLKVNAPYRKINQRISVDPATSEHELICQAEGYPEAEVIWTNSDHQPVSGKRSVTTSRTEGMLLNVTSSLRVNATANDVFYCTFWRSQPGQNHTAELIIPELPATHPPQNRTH
Procedure: as §1, §2

[3] = molecular target: T1, human PD-L1 over-expressed on CHOK1 cells (human, UniProt Q9NZQ7 19-290); assay: flow cytometry on PDL1-CHOK1 cells
T1 construct: whole, on cells; also called PDL1-CHOK1 cells
T1 sequence (Q9NZQ7 19-290): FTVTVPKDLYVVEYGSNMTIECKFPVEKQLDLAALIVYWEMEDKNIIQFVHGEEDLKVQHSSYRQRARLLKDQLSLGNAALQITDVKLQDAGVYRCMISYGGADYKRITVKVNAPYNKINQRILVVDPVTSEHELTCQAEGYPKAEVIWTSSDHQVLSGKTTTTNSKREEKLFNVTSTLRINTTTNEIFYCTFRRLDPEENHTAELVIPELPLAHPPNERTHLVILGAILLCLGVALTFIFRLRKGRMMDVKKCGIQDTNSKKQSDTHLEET
Procedure: After washing by PBS, Alexa Fluor® 647 AffiniPure Goat Anti-Human IgG (H+L) was added to each well and incubated at 4° C. for 30 mins. Samples were washed twice with FACS buffer. The mean florescence intensity (MFI) of Alexa Fluor® 647 was evaluated by FACSCanto.

[4] = molecular target: cynomolgus PD-L1 protein (cynomolgus, UniProt G7PSE7 19-238); assay: ELISA, coated cynomolgus PD-L1
cynomolgus PD-L1 protein, sequence (G7PSE7 entry or part of it): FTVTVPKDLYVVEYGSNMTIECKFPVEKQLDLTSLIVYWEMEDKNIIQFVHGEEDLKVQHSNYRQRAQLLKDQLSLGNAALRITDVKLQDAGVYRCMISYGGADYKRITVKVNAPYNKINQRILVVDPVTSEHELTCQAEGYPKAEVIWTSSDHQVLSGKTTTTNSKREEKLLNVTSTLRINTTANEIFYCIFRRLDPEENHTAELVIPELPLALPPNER
Procedure: as §1, §2

[5] = molecular target: T2, human PD-L1-Fc protein (human, UniProt Q9NZQ7 19-238); assay: ELISA, coated human PD-L1 (PD-L1-Fc per paragraph 110)
T2 construct: coating antigen of the ELISAs; also called rhPD-L1-Fc; not shown: Fc
T2 sequence (Q9NZQ7 19-238 limits assumed): as the sequence (G7PSE7 entry or part of it) above, with T33A, S34A, N62S, Q68R, R82Q, L173F, A185T, I192T, L215H counted along it
Procedure: (§3) Briefly, microtiter plates were coated with human PD-L1-Fc protein at 0.5 μg/ml in PBS, 100 μl/well at 4° C. overnight, then blocked with 150 μl/well of 1% BSA. […] The plates were washed with PBS/Tween and then incubated with Mouse-anti-human IgG Fab antibody conjugated with Horse Radish Peroxidase (HRP) for 30 mins at 37° C. After washing, the plates were developed with TMB substrate and analyzed by spectrophotometer at OD 450 nm.
as §2

[6] = molecular target: T3, human PD-L1-his tag protein (human, UniProt Q9NZQ7 19-238); assay: SPR (Biacore T200), mAb captured on Protein A chip, PD-L1-his injected
T3 construct: also called human PD-L1-His protein; recombinant PD-L1 protein; not shown: his tag
T3 sequence (Q9NZQ7 19-238 limits assumed): as the sequence (G7PSE7 entry or part of it) above, with T33A, S34A, N62S, Q68R, R82Q, L173F, A185T, I192T, L215H counted along it
Procedure: A serial dilution of human PD-L1-his tag protein was injected over captured antibody for 2 mins at a flow rate of 30 μl/min. The antigen was allowed to dissociate for 480-1500 s. All the experiment were carried out on a Biacore T200. Data analysis was carried out using Biacore T200 evaluation software.

[7] = molecular target: T2, human PD-L1-Fc protein; assay: competition ELISA, coated human PD-L1-Fc, biotin-labeled human PD-1-Fc as competitor
Procedure: as §3, with “Streptavidin-HRP” for “Mouse-anti-human IgG Fab antibody conjugated with Horse Radish Peroxidase (HRP)”, “10” for “30”

[8] = molecular target: T1, human PD-L1 over-expressed on CHOK1 …; assay: flow cytometry (MFI) on PDL1-CHOK1 cells; upper left panel (with Hu47C6A3-1 to -3)
Procedure: (§4) To evaluate the antigen binding property, the humanized antibodies were analyzed for their binding to PD-L1 overexpressed on mammalian cells by FACS. Briefly, PDL1-CHOK1 cells were firstly incubated with 3-fold serious diluted humanized antibodies starting at 15 μg/ml at 4° C. for 40 mins. After washed by PBS, the Alexa Fluor® 647 AffiniPure Goat Anti-Human IgG (H+L) antibody was added to each well and incubated at 4° C. for 30 mins. The MFI of Alexa Fluor® 647 was evaluated by FACSCanto.

[9] = molecular target: T2, human PD-L1-Fc protein; assay: ELISA, antibody titrated on coated human PD-L1-Fc, OD 450nm; lower left panel (with Hu47C6A3-3)
Procedure: as §2, with “To evaluate antigen binding activity, the humanized antibodies were subjected to ELISA test. Briefly,” for “Briefly,”, “with human PD-L1-Fc protein” for “with human, mouse, rat and cynomolgus PD-L1 proteins”, “with 200” for “with 150”, “of humanized” for “of chimeric”, “then incubated” for “then incubate”, “for 1 hour” for “for 30 mins”

[10] = molecular target: T2, human PD-L1-Fc protein; assay: ELISA, antibody titrated on coated human PD-L1-Fc, OD 450nm; upper left panel (with Hu47C6A3-1)
Procedure: as §2, with “To evaluate antigen binding activity, the humanized antibodies were subjected to ELISA test. Briefly,” for “Briefly,”, “with human PD-L1-Fc protein” for “with human, mouse, rat and cynomolgus PD-L1 proteins”, “with 200” for “with 150”, “of humanized” for “of chimeric”, “then incubated” for “then incubate”, “for 1 hour” for “for 30 mins”

[11] = molecular target: T2, human PD-L1-Fc protein; assay: ELISA, antibody titrated on coated human PD-L1-Fc, OD 450nm; upper right panel (with Hu47C6A3-2)
Procedure: as §2, with “To evaluate antigen binding activity, the humanized antibodies were subjected to ELISA test. Briefly,” for “Briefly,”, “with human PD-L1-Fc protein” for “with human, mouse, rat and cynomolgus PD-L1 proteins”, “with 200” for “with 150”, “of humanized” for “of chimeric”, “then incubated” for “then incubate”, “for 1 hour” for “for 30 mins”

[12] = molecular target: T2, human PD-L1-Fc protein; assay: receptor blocking ELISA: coated human PD-L1-Fc, blocked ligand biotin-labeled human PD-1-Fc (Bio-PD1), OD 450nm; lower left panel (with Hu47C6A3-3)
Procedure: as §3, with “BSA at 37° C. for 2 hours.” for “BSA.”, “Streptavidin-HRP” for “Mouse-anti-human IgG Fab antibody conjugated with Horse Radish Peroxidase (HRP)”, “10” for “30”

[13] = molecular target: T2, human PD-L1-Fc protein; assay: receptor blocking ELISA: coated human PD-L1-Fc, blocked ligand biotin-labeled human PD-1-Fc (Bio-PD1), OD 450nm; upper right panel (with Hu47C6A3-2)
Procedure: as §3, with “BSA at 37° C. for 2 hours.” for “BSA.”, “Streptavidin-HRP” for “Mouse-anti-human IgG Fab antibody conjugated with Horse Radish Peroxidase (HRP)”, “10” for “30”

[14] = molecular target: T2, human PD-L1-Fc protein; assay: receptor blocking ELISA: coated human PD-L1-Fc, blocked ligand biotin-labeled human CD80-Fc (Bio-CD80), OD 450nm; lower left panel (with Hu47C6A3-3)
Procedure: as §3, with “BSA at 37° C. for 2 hours.” for “BSA.”, “Streptavidin-HRP” for “Mouse-anti-human IgG Fab antibody conjugated with Horse Radish Peroxidase (HRP)”, “10” for “30”

[15] = molecular target: T2, human PD-L1-Fc protein; assay: receptor blocking ELISA: coated human PD-L1-Fc, blocked ligand biotin-labeled human CD80-Fc (Bio-CD80), OD 450nm; upper left panel (with Hu47C6A3-1)
Procedure: as §3, with “BSA at 37° C. for 2 hours.” for “BSA.”, “Streptavidin-HRP” for “Mouse-anti-human IgG Fab antibody conjugated with Horse Radish Peroxidase (HRP)”, “10” for “30”

[16] = molecular target: T2, human PD-L1-Fc protein; assay: receptor blocking ELISA: coated human PD-L1-Fc, blocked ligand biotin-labeled human CD80-Fc (Bio-CD80), OD 450nm; upper right panel (with Hu47C6A3-2)
Procedure: as §3, with “BSA at 37° C. for 2 hours.” for “BSA.”, “Streptavidin-HRP” for “Mouse-anti-human IgG Fab antibody conjugated with Horse Radish Peroxidase (HRP)”, “10” for “30”

[17] = molecular target: T3, human PD-L1-his tag protein; assay: SPR (Biacore), affinity ranking, PDL1-His
[18] = molecular target: T1, human PD-L1 over-expressed on CHOK1 …; assay: flow cytometry (MFI) on PDL1-CHOK1 cells; upper right panel
Procedure: as §4

[19] = molecular target: T3, human PD-L1-his tag protein; assay: SPR (Biacore T200), mAb captured on Protein A chip, PD-L1-his injected; remark: listed apart in the source
Procedure: The binding of the humanized antibodies to recombinant PD-L1 protein (human PD-L1-his tag) was tested by Biacore using a capture method. […] A serial dilution of human PD-L1-his tag protein was injected over captured antibody for 2 mins at a flow rate of 30 μl/min. The antigen was allowed to dissociate for 1500 s. All the experiment were carried out on a Biacore T200.

[20] = molecular target: T2, human PD-L1-Fc protein; assay: ELISA, antibody titrated on coated human PD-L1-Fc, OD 450nm; upper left panel
Procedure: as §2, with “To evaluate antigen binding activity, the humanized antibodies were subjected to ELISA test. Briefly,” for “Briefly,”, “with human PD-L1-Fc protein” for “with human, mouse, rat and cynomolgus PD-L1 proteins”, “with 200” for “with 150”, “of humanized” for “of chimeric”, “then incubated” for “then incubate”, “for 1 hour” for “for 30 mins”

[21] = molecular target: T2, human PD-L1-Fc protein; assay: receptor blocking ELISA: coated human PD-L1-Fc, blocked ligand biotin-labeled human PD-1-Fc (Bio-PD1), OD 450nm; middle left panel
Procedure: as §3, with “BSA at 37° C. for 2 hours.” for “BSA.”, “Streptavidin-HRP” for “Mouse-anti-human IgG Fab antibody conjugated with Horse Radish Peroxidase (HRP)”, “10” for “30”

[22] = molecular target: T2, human PD-L1-Fc protein; assay: receptor blocking ELISA: coated human PD-L1-Fc, blocked ligand biotin-labeled human CD80-Fc (Bio-CD80), OD 450nm; middle left panel
Procedure: as §3, with “BSA at 37° C. for 2 hours.” for “BSA.”, “Streptavidin-HRP” for “Mouse-anti-human IgG Fab antibody conjugated with Horse Radish Peroxidase (HRP)”, “10” for “30”

rat PD-L1 protein, sequence (D4AE25 entry or part of it limits assumed): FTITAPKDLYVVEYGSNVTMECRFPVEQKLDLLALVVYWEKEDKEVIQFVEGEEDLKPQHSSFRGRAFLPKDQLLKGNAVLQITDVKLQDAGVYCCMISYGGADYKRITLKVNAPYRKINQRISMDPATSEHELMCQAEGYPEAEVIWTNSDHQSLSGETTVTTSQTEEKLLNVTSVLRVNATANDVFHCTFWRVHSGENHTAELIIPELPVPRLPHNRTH

B1: 47C6A3 chimeric mAb (antibody, V domains shown)
VH: DVQLQESGPGLVKPSQSLSLTCTVTGYSITSDYAWNWIRQFPGNKLEWMGYIIYSGSTSYNPSLKSRISITRDTSKNQFFLQLNSVTTEDTATYYCARSTMIATNWFAYWGQGTLVTVSA
VL: DIVMTQSHKFMSTSVVDRVSITCKASQDVSLAVAWYQQKPGQSPKLLIYWASTRHTGVPDRFTGSGSGTDFALTISSVQAEDLALYYCQQHYITPWTFGGGTKLEIK
notes: chimeric mAb of the hybridoma clone; also called 47C6A3-chimera
[1]
  binding result: no binding (tested: dilutions starting from 10 µg/ml)
[2]
  binding result: no binding (tested: dilutions starting from 10 µg/ml)
[3]
  EC50: 0.148 nM
[4]
  EC50: 0.00634 µg/mL
[5]
  EC50: 0.0102 µg/mL
[6]
  Kd: 0.366 nM
  koff: 0.000678 s⁻¹
  kon: 1.85e+06 M⁻¹ s⁻¹
[7]
  IC50: 0.0912 µg/mL
[8]
  EC50: 0.113 nM
[9]
  EC50: 0.0176 µg/mL
[10]
  EC50: 0.0115 µg/mL
[11]
  EC50: 0.0124 µg/mL
[12]
  IC50: 0.099 µg/mL
[13]
  IC50: 0.0857 µg/mL
[14]
  IC50: 0.439 µg/mL
[15]
  IC50: 0.436 µg/mL
[16]
  IC50: 0.395 µg/mL

B2: Hu67F3G7-5 (antibody, V domains shown)
VH: EVQLVQSGAEVKKPGASVKVSCKASGYIFTDFWVSWVRQAPGKGLEWIGEIYPNSGVSRYNEKFKGRVTMTVDKSISTAYMELSRLRSDDTAVYYCTKYFGYTYWFGYWGQGTLVTVSS
VL: DIQMTQSPSSLSASVGDRVTITCRASKSVSTYMHWYQQKPGKAPKLLIYSASHLESGVPSRFSGSGSGTDFTLTISSLQPEDFATYYCQQSNELPVTFGGGTKVEIK
notes: humanized
[17]
  Kd: 0.037 nM
  koff: 9.71e-05 s⁻¹
  kon: 2.62e+06 M⁻¹ s⁻¹
[18]
  EC50: 0.115 nM
[19]
  Kd: 0.0431 nM
  koff: 7.92e-05 s⁻¹
  kon: 1.84e+06 M⁻¹ s⁻¹
[20]
  EC50: 0.0133 µg/mL
[21]
  IC50: 0.127 µg/mL
[22]
  IC50: 0.344 µg/mL
